In patent US20260193366A1 (APOGEE THERAPEUTICS, published 2026):

T1: hIL-4Rα on cells (human, UniProt P24394 26-825)
T1 sequence: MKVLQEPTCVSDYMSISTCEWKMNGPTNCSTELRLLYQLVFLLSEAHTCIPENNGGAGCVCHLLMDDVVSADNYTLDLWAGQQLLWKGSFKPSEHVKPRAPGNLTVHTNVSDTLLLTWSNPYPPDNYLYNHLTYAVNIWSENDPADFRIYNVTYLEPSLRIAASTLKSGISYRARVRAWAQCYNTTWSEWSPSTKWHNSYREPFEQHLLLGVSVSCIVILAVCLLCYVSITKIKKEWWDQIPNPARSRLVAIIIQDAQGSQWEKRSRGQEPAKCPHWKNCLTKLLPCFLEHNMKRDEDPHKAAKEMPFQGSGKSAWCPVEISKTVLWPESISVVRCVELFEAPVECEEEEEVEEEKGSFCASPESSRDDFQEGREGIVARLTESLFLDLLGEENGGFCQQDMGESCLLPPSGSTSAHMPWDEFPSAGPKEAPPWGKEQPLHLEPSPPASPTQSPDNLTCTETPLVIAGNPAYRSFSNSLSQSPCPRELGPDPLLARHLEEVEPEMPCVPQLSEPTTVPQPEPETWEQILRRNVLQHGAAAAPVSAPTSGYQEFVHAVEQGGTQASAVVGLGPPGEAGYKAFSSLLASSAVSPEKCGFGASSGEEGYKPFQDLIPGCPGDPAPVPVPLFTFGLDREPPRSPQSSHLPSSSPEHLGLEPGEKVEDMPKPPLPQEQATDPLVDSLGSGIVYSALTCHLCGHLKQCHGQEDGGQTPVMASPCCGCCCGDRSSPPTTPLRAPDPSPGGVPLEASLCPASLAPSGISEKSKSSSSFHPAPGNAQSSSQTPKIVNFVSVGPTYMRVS

T2: human IL-4Rα (human, UniProt P24394 26-232)
T2 construct: also called Hu IL-4Rα; hIL-4Rα
T2 sequence: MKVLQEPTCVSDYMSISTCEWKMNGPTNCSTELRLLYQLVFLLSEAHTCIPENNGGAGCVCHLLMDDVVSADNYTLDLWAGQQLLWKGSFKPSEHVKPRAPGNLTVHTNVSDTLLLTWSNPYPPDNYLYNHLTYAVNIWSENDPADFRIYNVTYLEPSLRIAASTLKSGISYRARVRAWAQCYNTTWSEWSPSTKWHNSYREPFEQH

T3: cynomolgus monkey IL-4Rα (cynomolgus monkey, UniProt P24394 26-231 (human entry), limits assumed)
T3 construct: also called Cyno IL-4Rα; cyIL-4Rα
T3 chain: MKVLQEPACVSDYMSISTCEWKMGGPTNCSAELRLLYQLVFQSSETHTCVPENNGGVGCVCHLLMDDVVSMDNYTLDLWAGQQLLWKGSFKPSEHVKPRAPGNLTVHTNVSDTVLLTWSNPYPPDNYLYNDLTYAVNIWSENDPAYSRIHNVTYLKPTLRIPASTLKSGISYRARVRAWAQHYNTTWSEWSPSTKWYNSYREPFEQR


Assays:
hIL-4Rα on cells [1] = target: T1, hIL-4Rα on cells; assay: FACS on HEK293 cells, competitor biotin-hIL-13;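 note: stably transduced cells co-expressing both receptor chains, stained cold, with cell-bound signal read as mean fluorescence intensity by flow cytometry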
Method: Briefly, HEK293 previously transduced to stably express both hIL-13Rα and hIL-4Rα were cultured and harvested. Cells were seeded at 200,000 cells in 100 uL per well. Cells were washed and the supernatant discarded. […] The cells were stained in this mixture at 4° C. for 1 hour. […] Cells were incubated 4° C. for 1 hour, protected from light. Cells were then washed and the MFI of cells in each well were recorded by FACS using a BD FACSCanto II. Subsequent data were analyzed using GraphPad Prism.

hIL-4Rα on cells [2] = target: T1, hIL-4Rα on cells; assay: cell-based or functional assay
hIL-4Rα on cells [3] = target: T1, hIL-4Rα on cells; assay: cell-based or functional assay; remark: listed apart in the source
human IL-4Rα = target: T2, human IL-4Rα; assay: SPR, Carterra LSA;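 note: antibodies captured on an anti-human Fc sensor chip, antigen injected at several concentrations, association and dissociation rates fitted with a 1:1 Langmuir model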
cynomolgus monkey IL-4Rα = target: T3, cynomolgus monkey IL-4Rα; assay: SPR, Carterra LSA;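 note: antibodies captured on an anti-human Fc sensor chip, antigen injected at several concentrations, association and dissociation rates fitted with a 1:1 Langmuir model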
hIL-4Rα on cells [4] = target: T1, hIL-4Rα on cells; assay: FACS on HEK293 cells, competitor biotin-hIL-4;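 note: HEK293 cells stably co-expressing hIL-13Rα and hIL-4Rα, stained for 1 h at 4 °C, read-out as mean fluorescence intensity by flow cytometry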
hIL-4Rα on cells [5] = target: T1, hIL-4Rα on cells; assay: cell-based or functional assay; remark: listed apart in the source

Relative Blockade of IL-13 Binding IC50 (hIL-4Rα on cells [1])	Relative Inhibition of IL-4 induced TF-1 Proliferation IC50 (hIL-4Rα on cells [2])	Relative Inhibition of IL-13 induced TF-1 Proliferation IC50 (hIL-4Rα on cells [2])	Relative Inhibition of IL-4 induced TARC IC50 (hIL-4Rα on cells [3])	Relative Inhibition of IL-13 induced TARC IC50 (hIL-4Rα on cells [3])	KD Relative to Dupilumab (human IL-4Rα)	Kd (human IL-4Rα) [nM]	KD Relative to Dupilumab (cynomolgus monkey IL-4Rα)	Kd (cynomolgus monkey IL-4Rα) [nM]	Relative Blockade of IL-4 Binding IC50 (hIL-4Rα on cells [4])	Relative Inhibition of IL-4 induced pSTAT6 IC50 (hIL-4Rα on cells [5])	Relative Inhibition of IL-13 induced pSTAT6 IC50 (hIL-4Rα on cells [5])	Binder
1.01 relative to dupilumab	1.68 relative to dupilumab	1.79 relative to dupilumab	3.09 relative to dupilumab	14.5 relative to dupilumab	0.96	0.0109	0.31	192	1.08 relative to dupilumab	1.25 relative to dupilumab	4.61 relative to dupilumab	Construct 45 (mAb494) (antibody, IgG4, V domains shown, VH/VL only) VH: EVQLVESGGGLEQPGGSLRLSCAGSGFTFRDFAMTWVRQAPGKGLEWVSSISGSGDGTYYADSVKGRFTISRDNSKNTLYLQMNSLRAEDTAVYYCAKDRVSITIRPRYYGLDVWGQGTTVTVSS VL: DIVMTQSPLSLPVTPGEPASISCTASQSLLYSIGYNYVDWYLQKSGQSPQLLIYLGNNRATGVPDRFSGSGSGTDFTLKISRVEAEDVGFYYCMQSLQTPYTFGQGTKLEIK
1.14 relative to dupilumab	1.74 relative to dupilumab	2.01 relative to dupilumab	4.36 relative to dupilumab	2.4 relative to dupilumab	1.04	0.0118	1.58	993	1.36 relative to dupilumab	1.68 relative to dupilumab	4.76 relative to dupilumab	Construct 32 (mAb446) (antibody, IgG4, V domains shown, VH/VL only) VH: EVQLVESGGGLEQPGGSLRLSCAGSGFTFRDFAMTWVRQAPGKGLEWVSSVSGDGGNTYYADSVKGRFTISRDNSKNTLYLQMNSLRAEDTAVYYCAKDRLSVTVRPRYYGLDVWGQGTTVTVSS VL: DIVMTQSPLSLPVTPGEPASISCRSSQSLLYSNGYNYLDWYLQKSGQSPQLLIYLSSNRASGVPDRFSGSGSGTDFTLKISRVEAEDVGFYYCMQAFQAPYTFGQGTKLEIK
0.958 relative to dupilumab	0.387 relative to dupilumab	0.917 relative to dupilumab	0.68 relative to dupilumab	0.592 relative to dupilumab	0.98	0.011	0.2	128	0.863 relative to dupilumab	1.09 relative to dupilumab	0.781 relative to dupilumab	Construct 30 (mAb439) (antibody, IgG4, V domains shown, VH/VL only) VH: EVQLVESGGGLEQPGGSLRLSCAGSGFTFRDYAMTWVRQAPGKGLEWVSSISGSGGNTYYADSVKGRFTISRDNSKNTLYLQMNSLRAEDTAVYYCAKDRLSITIRPRYYGLDVWGQGTTVTVSS VL: DIVMTQSPLSLPVTPGEPASISCRSSQSLLYSNRNNYLDWYLQKSGQSPQLLIYSASIRASGVPDRFSGSGSGTDFTLKISRVEAEDVGFYYCMQAFQAPYTFGQGTKLEIK
1.02 relative to dupilumab	1.29 relative to dupilumab	1.28 relative to dupilumab	2.49 relative to dupilumab	4.66 relative to dupilumab	0.97	0.011	0.36	228	1.22 relative to dupilumab	1.04 relative to dupilumab	3.6 relative to dupilumab	Construct 46 (mAb501) (antibody, IgG4, V domains shown, VH/VL only) VH: EVQLVESGGGLEQPGGSLRLSCAGSGFTFRDSAMTWVRQAPGKGLEWVSSISGSGDGTYYADSVKGRFTISRDNSKNTLYLQMNSLRAEDTAVYYCAKDRLSIYIRPRYYGLDVWGQGTTVTVSS VL: DIVMTQSPLSLPVTPGEPASISCTSSQSLLYSIGYNYVDWYLQKSGQSPQLLIYLGNKRASGVPDRFSGSGSGTDFTLKISRVEAEDVGFYYCMQALQTPYTFGQGTKLEIK
